Experiment: yeast display, Sf9 membrane polyspecificity reagent, FACS + sequencing; frameworks hold sequencing errors
Outline: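 Genes from sorted yeast were amplified by colony PCR, read by MiSeq 2 × 250 sequencing and filtered on CDR length. These cells carried a synthetic nanobody library in Saccharomyces cerevisiae BJ5465 and were sorted by FACS into low and high (top ~1%) gates on anti-HA and streptavidin fluorescence. Polyreactivity is labelled according to the gate of origin.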

Row | Sequence | polyreactivity (PSR sort gate)
1 | QVQLEESGGGLVQAGGSLRLSCAASGSIFYVYAIGSYRQAPRKERELVAAISQSGGNTYYADSVKGRFTISRDNAKNTVYLQMNSLKPEDTAVYYCNAVYYYYAGNYWGQGTQVTVSS | high polyreactivity
2 | QVQLEESGGGLVQAGGSLRLSCAASGSIIAGYAMGWYRQAPGKERELVAAISQRGTSTYYADSVKGRFTISRDNAKNTVYLQMNSLKPEDTAVYYCAARVVSRMDYWGQGTQVTVSS | high polyreactivity
3 | QVQLEESGGGLVQAGGSLRLSCAASGSNFYLNDMGWYRQAPGKEREFVAAIDSRGTSTYYADSVKGRFTISRDNAKNTVYLQMNSLNPEDTAVYYCAADSYALEYDYWGQGTQVTVSS | low polyreactivity
4 | QVQLEESGGGLVQAGGSLRLSCAASGSTCGYYAMGWYRQAPGKERELVAVITRGGSTYYADSVKGRFTISRDNAMNTVYLQMNSLKPEDTAVYYCNARVQAVHYGYWGQGTQVPVSS | high polyreactivity
5 | QVQLEESGGGLVQAGGSLRLSCAASGSTFANYAMGWYRQAPRKERELVAGISWRGGRTYYADSVMGRFTISRDNGKNTVYLQINILKPEDTAVYYCAVVHQTFTGDYWGQGTQVTVSS | high polyreactivity
6 | QVQLEESGGGLVQAGGSLRLSCAASGSTFGYYAMGWYRQAPGKERELVAAISRSGGITYYADSVKGRFTISRDNAKNTVYLQMNSLKPDDTAVYYCAADRNRYTGEDDSWGQGTQVTVSS | low polyreactivity
7 | QVQLEESGGGLVQAGGSLRLSCAASGSTFPYYAMGWYRQAPGKERELVAVITSSGSRTYYADSVKGRFTISRDNAKNTVYLQMNSLKPEDTAVYYCARDTRYYRPNRSQYDYWGQGTQVTVSS | high polyreactivity
8 | QVQLEESGGGLVQAGGSLRLSCAASGSTFSDNAKAWYRQATGKVRELVADITWSGGSTHYADSVKGRFTFSRDNAKNTVYLQMTSLKPEDTSVYYCARDNYKEGDYWGQGTKVTVSS | low polyreactivity
9 | QVQLEESGGGLVQAGGSLRLSCAASGSTFSRYAMGWYRPAPGKEREFVAAISRRAGGTYYADSVKGRFTISRDNAKNTVYLQMNSLKPEDTAVYYCATVLPRDYIGRATYDYWGQGTQVTVSS | high polyreactivity
10 | QVQLEESGGGLVQAGGSLRLSCAASGSTFVPYAMGWYRQAPGKERELVASISWRGGSTSYADSVKGRFTISRDNAKNTVYLQMNSLKPEDTAVYYCAADLGLDYDDAQTRVVVTSEDYWGQGTQVTVSS | high polyreactivity
11 | QVQLEESGGGLVQAGGSLRLSCAASGSTFWPYSMGWYRKATGKERELVAAITLRGGTTYYADSVKGRFTISRDNAMNTVYFQMNSLKPEDTAVYYCNADDYHYFSYDYWGQGTQVTVSS | low polyreactivity
12 | QVQLEESGGGLVQAGGSLRLSCAASGSTFWVYVMGWYRQAPGKERELVATIRWSTSSTYADSVKGRFTISRDNAKNTVYLQMNILKPEDTAVYYCNTYPRGNWGNFVEQDYDYWGQGTQVTVSS | low polyreactivity
13 | QVQLEESGGGLVQAGGSLRLSCAASGSTSTYNAMGWYRQAPGKERELVAAITESGGSTYYADSVKGRFTISRDNAKNTVYLQMNSLKPEDTAVYYCNTGYGLVDFLYGYYYWGQGTQVTVSS | low polyreactivity
14 | QVQLEESGGGLVQAGGSLRLSCAASGYIFQSYAMGWYRQAPGTERELVAAISRGGSTYYADSVKGRFTISRDNAMNSVYLQMNSLKPEDTAVYYCNTLTVGGFRRYYYWGQGSQVTVSS | high polyreactivity
15 | QVQLEESGGGLVQAGGSLRLSCAASRSTLDGYAMGWYRQAPGKERELVDAITFSGGITYYADSVKVRFTISRDNAKNTVYLQMNILKPEDTAVYYCAADISTWTTWSGTEYDYLGQGTQVTVSS | low polyreactivity
16 | QVQLEESGGGLVQAGGSLRLSCAASVSNLYYYPMGWYRQATRKERELVASIRNGGSTYYADSVKGLFTISRDNAKNTVYLQMNSLKPEDTAVYYCNARVSRSFRARYNYWGQGSQVTVSS | high polyreactivity
17 | QVQLEESGGGLVQAGGSLRLSCAGSGFISNGYALGWYRQAPGKEREFVASISSTGGRTYYADSVKGRFTISRDNAKNTVYLLMNSLKPEDTSVYYCAKDPQPRYWVDYWGQGTQVTVSS | low polyreactivity
18 | QVQLEESGGGLVQAGGSLRLSCAGSGNIFPSYALGWYRQAPGKERELVAAITYSAVSTYYADSVKGRFTISRDNAKNTVYLQMNSLKPEDTAVYYCAKETTEVPGVGSQEMDFWGQGTQVTVSS | low polyreactivity
19 | QVQLEESGGGLVQAGGSLRLSCASYGRIFPFYALGWYRQAPRKERELVARISRRGGSTYYADSVKGRFTISRDNAKNNVYLQMNSLKPEDTAVYYCASSQAVYDGWYAKFGYWGQGTQVTVSS | low polyreactivity
20 | QVQLEESGGGLVQAGGSLRLSCASYGSTFTYNAMGLYIQAPAKERELVAVIRPGGTTNYADSVKGRFTISRDNAKNSVYLQMNSLKPVDTAVYYCAADVRRYDGYDYWGQGTQVTVSS | low polyreactivity
21 | QVQLEESGGGLVQAGGSLRLSCPASGLTFDCYAMGWYRQAPGKERELVAAITSVGSTYYADSVKGRFTISRDNAKNTVYLQMTSLKPEDTAVYYCAVEGVIWCFWPYEYWGQGTQVTVSS | high polyreactivity
22 | QVQLEESGGGLVQAGGSLRLSWAASGRTIAAYAMGWYRQAPGKERELVAAISIGGSTNYADSVKGRFTISRDNAKNTVYLQMNSLKPEDTAVYYCAAPRRRYLRARIRYEYWGQGTQVTVSS | high polyreactivity

Row | Sequence | polyreactivity (PSR sort gate)
23 | QVQLEESGGGLVQAGGSLRLTCAASGIIFRFYAMRCDRQAPGKERELVAVITSRSDSTYYADSVKGRFTISRDYAKNTVYLQMNSVKPEDTAVYYCNARYPWYYRYSTYDYWGQGTQVTVSS | high polyreactivity
24 | QVQLEESGGGLVQAGGSLRLTCAASGRTFSSYTMGWSRQAPGKERELVASITNNGGSTYYADSVKGRFTISRDNAKNTVYLQMNSLKPEDTAVYYCNKDPWYVFHPRGLFLFDYWGQGTQVTVSS | low polyreactivity
25 | QVQLEESGGGLVQAGGSLSLSSAASGSIFRNYAKGWYRQAPGKERELVAAISVRGGSTYYADSVKGRFTISRDNAKNTVYLQMNSLKPEDTAVYYCNARTYYPVYYRDGGYWGQGTQVTVSS | high polyreactivity
26 | QVQLEESGGGLVQAGGSRRLSCAASGITFPGYAMGWYRQAPGKERELVAGITYRGGRTYYADSVKGRFTISRDNAKTTVYLQMTSLNTEATAVYYCNADYWSTGGSYSFDYWGQGTQVTVSS | low polyreactivity
27 | QVQLEESGGGLVQAGGTLRLSCAASGLNFSYNAMGWYRQAPGKERELVAAISYSGGSTYYPDSVKGRFTISRDNAKNTVYLQMNSLKPEDTAVYYCASDAWWLYYGYYYWGQGTQVTLSS | high polyreactivity
28 | QVQLEESGGGLVQAGRSLRLISAASGRMFGWNAMGWYRQAPWKERELVASIRSGGRTNYADSVKGRFTISRDNAKNTVYLQMNSLKPEDTAVYYCAVGPYYQSTQIYDYWGQGTQVTVSS | low polyreactivity
29 | QVQLEESGGGLVQAVGSLRLTCAASGLIFKSNAMGWYRQAPGKERQLVAAITRTGGSTYYADSVKGRFTISRDNAKNTVYLQMNSLKPEDTAVYYCAVLYDRYGRAYYYWGQGTQVTVSS | high polyreactivity
30 | QVQLEESGGGLVQAVRSLRLSCAASGSTFDYYAMRWFRQAPWKEREFVAAISVSGGRTYDADSVKGRFTISRDNAKTTVYLQMNSQKPEDTAVSYCAAVQWYLPSFRYYYRGQGTQVTVSS | high polyreactivity
31 | QVQLEESGGGLVQPGGSLRLSCAASGIIFAYNAMGWNRQAPGKERELVATITDSGGTTSYADSVKGRFTISRDNAKNTVYLQMNRLKQEDTAVYYCAVLPVYWYWRNYVYLSGYDYWGQGTQVNVSS | low polyreactivity
32 | QVQLEESGGRLVQAGARLRLSCAASGPIFHQYAMGWYRHAPGKERELGAAISSGGGSTYYADSVKGRFTISRDNAKNTGYLQMNSLKPEDTAVYYCNVYSVRWARFDFWGQGTQVTVSS | high polyreactivity
33 | QVQLEESGGRLVQAGASLRLSCAASGSIFEDYVMGWYRHAPGKERELVADITSGGTTYYADSVKGRFTISRDYAKNTVYLQMNRLKPEATAVYYCNAYLIVDYGDETPYASLHDYWGQGTQVTVSS | low polyreactivity
34 | QVQLEESGGRLVQAGGSLRLSCAASGGILRGYGMGWYRQAQGKQRELVAVISRRGGSTYYADSVKGRFTISRDNAKNTVYLQMNRLKPEVTAVYYCAADLKTGFLEYDYWGQGTQVTVSS | high polyreactivity
35 | QVQLEESGGRLVQAGGSLRLSCAASGSIIGRYTMGWYRQAPGKERELVAAISGSGGSTYYADSVKGRFTISRDNAKNSVYFQMYSLKPEDTAVYYCAAYYYGRYLMVYWGQGTQVTVAS | high polyreactivity
36 | QVQLEESGGRLVQEGGSLRLSCAASGYIFQGNAMGWYTPAPGKERELVAAITSSGGRTYYADSVKGRFTISRDNAKNTVYLQMHSLKPEDTAVYYCAAKSVRRGGGEYWGEGTQVTVSS | high polyreactivity
37 | QVQLEESGGRLVQPGGSLRLSCAASGFIFGIYDMGWYRQAPGKERELVAAITYSGSSTYYADSVKGRFTISRDNAKNTVYLQMNSLKPEDTAVYYCNKTAWDWDYWDPEYDYWGQGTQVTVSS | high polyreactivity
38 | QVQLEESGGVLVQAGGSLRLSCAASGLTLYRNAMGWYRQAPGKERELVATINFSGGSTYYADSVKGRFTISRDNAKNTVYLQMNSLKPEDTAVYYCNARGYWHYSPTKFDYWGQGTQVTVSS | low polyreactivity
39 | QVQLEESGGVLVQAGGSLRLSCAASGSIFDAYAMGWYRQAPGKDRELVADITVSAGRTYYADSVNGRFTISRDNAKNTVYLQMNSLKPEDTAVYYCAADSIVGDGYWSYYWGQGTQVTVSS | low polyreactivity
40 | QVQLEESGRGLLQAGGSLRISCAASGFIYGTNTMGWYRQAPGIARELVAAITSVGSTNYADSVKGRFTISRDNAKNTVYLQMNSLKPEDTAVYYCPATLYYQYGGDYWGQGTQVTVSS | low polyreactivity
41 | QVQLEESGVGLLQAGGSLRLSCAASGFIFCSNDMGWYRQAPGKERELVAAITRGGNTNYADSVKGRFTISRDNAKNTVYLQLNSLKPEDTAVYYCATEGYGAVQPSYEGGYWGQGTQVTVSS | low polyreactivity
42 | QVQLEESRGGIVQAGGSLRLSCAASGFTFSTYAMGWYRPAPGKELELVASISRSGNTNYADSVKGRFTISRDNAKNTVYLQMKSLKPEDTAVYSSAAELVYRRVRYDYWGQGTQVTVSS | high polyreactivity
43 | QVQLEESRGGLVQAGGSHRLSCAAYGSIFRSYAMGWYRQAPGKERDLVAAISSRSGSTYYADSVKGRFTISRDNAKNTVYLQMNSLKPEDTAVYYCAAQHRHSFGYWGQGTQVTVSS | high polyreactivity

From the nanobody polyreactivity screen of Harvey et al. (2022)
